Key:
[1] = test system: MS2 coat protein; test: apparent KD of MS2 coat protein; higher = weaker reporter binding; details: Eterna round: R107
Method: (§1)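 RNA-MaP round R107: designed RNA switches with theophylline, tryptophan, arginine or FMN aptamers are transcribed on-chip within common flanks. They are titrated with SNAP-549-labelled MS2 coat protein in RNA-MaP buffer (100 mM Tris pH 7.5, 80 mM KCl, 4 mM MgCl2), without ligand or with the indicated ligand. Median apparent KD per design.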

[2] = test system: K4 kissing-loop RNA reporter; test: apparent KD of K4 kissing-loop reporter; higher = weaker reporter binding; details: Eterna round: R107;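 note: bound reporter read as fluorescence of individual clusters on recovered sequencing chips by microscopy, with normalized cluster intensities fitted with a binding model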
Method: as §1, with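 “a labelled K4 kissing-loop RNA reporter” for “SNAP-549-labelled MS2 coat protein”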

[3] = input ligand: theophylline 20 uM
[4] = input ligand: theophylline 2 mM
[5] = input ligand: tryptophan 2.4 mM

Sequence	apparent KD of MS2 coat protein ([1]; input ligand: arginine 13.2 mM)	apparent KD of MS2 coat protein ([1]; input ligand: none)	apparent KD of MS2 coat protein [1, 3]	apparent KD of MS2 coat protein [1, 4]	apparent KD of MS2 coat protein [1, 5]	apparent KD of K4 kissing-loop reporter ([2]; input ligand: FMN 200 uM)	apparent KD of K4 kissing-loop reporter ([2]; input ligand: arginine 13.2 mM)	apparent KD of K4 kissing-loop reporter ([2]; input ligand: none)	apparent KD of K4 kissing-loop reporter [2, 3]	apparent KD of K4 kissing-loop reporter [2, 5]
UUAUGCAGGUCGGCCGCCACUACACACAUGAGGAUCACCCAUGUAGUUACUGGGUGAAGUGGCAGUAGGACCGGGACCCGCACAC [Brourdmod22]	226 nM	485 nM	561 nM	715 nM	258 nM	–	–	–	–	–
AAAUAAACCUCGGCCGCCACUCGCCAUGAGGAUCACCCAUGUAACAUGAGGAUCACCCAUGUACAGAGGACCGGGAGGUCCUAGU [Same State Tryptophan B GF 13]	48.3 nM	–	68.9 nM	87.1 nM	–	–	–	–	–	–
GGUCUCGAGAGCGAUACCAGCUUGAUCGUACUGGCCUGGUACAUGAGGAUCACCCAUGUAAGCCCUUGGCAGCGCUCUCGAGACC [#1 Exclusion - Theophylline B Attempt #7 (HarryS)]	9.53 nM	11.4 nM	15.6 nM	30.1 nM	14 nM	–	–	–	–	–
CUCUGAGUCCGAAAGGACUCAGAGGCGGAUACCAGCGAGGUCCAUCGCCCUUGGCAGCCGAACAUGAGGAUCACCCAUGUCGGUA [#1 Same State - Theophylline A Attempt #28 (HarryS)]	9.74 nM	–	12.1 nM	–	11.2 nM	–	–	–	–	–
GAUGAACAUACUGAUACCAGUGUACUGACAUGAGGAUCACCCAUGUUGGGUUUUGUUGUACACCCUUGGCAGCAGAAUGUUUAUC [AstrosExyTheB#7]	46.2 nM	–	66.5 nM	–	55.4 nM	–	–	–	–	–
CUAUAAUGAAAACAUUAUAGAGUGGGUGAACGAGGACCGGUACGGCCGCCACUCGGACAUGAGGAUCACCCAUGUCCAUGUGAAA [AstrosExyTryA#24]	11.2 nM	15.6 nM	18.9 nM	17.7 nM	31.9 nM	–	–	–	–	–
UCUGUUUGCUUUGUUUGUUUCUUCUUUGAGCGAGGACCGGUACGGCCGCCACUCGGGUUACAUGAGGAUCACCCAUGUGGUUUCU [Interesting]	72.3 nM	–	163 nM	149 nM	–	–	–	–	–	–
GAGCUGAUGUAGAGAUUUUAUUUCUGAGAUACCAGUACAGAAAUGUACCCUUGGCAGCUCAGCUUUACAUGAGGAUCACCCAUGU [Ex Theophylline A 16]	16.9 nM	–	17.8 nM	–	17.6 nM	–	–	–	–	–
ACAUGAAGAACAGCGGUGGGCGCGCUCGAUACCAGUAUUUUAAAUUACCCUUGGCAGCGACAUGAGGAUCACCCAUGUGAGAUGA [XTheo A #5]	22.5 nM	18.1 nM	24.8 nM	33.8 nM	18 nM	–	–	–	–	–
AAUAAUAAGGCGGCCGCCACUACACAUGAGGAUCACCCAUGUCUCGCGGGCUUGCGUUGGGAAAGUAGGACCGGGCCAAUAAUAA [Exclusion - Tryptophan B (Freestyle 9)]	15.3 nM	21.5 nM	26 nM	27.3 nM	15.7 nM	–	–	–	–	–
AAUUAUCAGUCGGCCGCCACUGACACAUGAGGAUCACCCAUGUAACAUGGGUAAAAUUAACUGAACAGGACCGGGACAAAGGCUA [JR_ExcTryptoB_Sub008]	179 nM	–	671 nM	740 nM	–	–	–	–	–	–
CCCAGUCAUAGCAGGGCAAAUAUACUCGAAGGAGCGUCAUAGUAGGCAGGUAGGUCGCGAGACAUGAGGAUCACCCAUGUAGAGA [cccmullin]	33.6 nM	52.3 nM	67 nM	44.2 nM	44.8 nM	–	–	–	–	–
AAGAACAUGAGGAUCACCCAUGUGAUCGUUCGAGGACCGGUACGGCCGCCACUCGGACCUGUGUCCAGGCACGGGCCGACGCGAC [theeternabot_sameState_MS2_Trp_A_21]	74.8 nM	–	118 nM	106 nM	–	–	–	–	–	–
AAGGGCUAGGCGGCCGCCACUUGUUGUGAACACAUACGAGCCAGUGAUGUUGGUAUUGUGUGCGGAAGGACCGGGCCUAGCCGAA [Exclusion - Tryptophan B (Freestyle 22)]	–	–	–	–	–	178 nM	226 nM	228 nM	224 nM	302 nM
GGAUAGGACAGAGGAUAUGGUAGUGAUGUUACCAAACUGGUUACUCUUGUCAGAAAACUGGCAUUUCCAGAAGGCUGUCCUAUCG [KL-XFMN-B11]	–	–	–	–	–	599 nM	75.1 nM	92.2 nM	84.9 nM	104 nM
GUGUAAGUGAUGUUUGCACACACGUCGGAUACCAGAGACUUUAGCCUCCCUUGGCAGCCGCCGGCCAUAAGAGCAAGUCGAUUUA [theeternabot_sameState_KL_Theo_A_20]	–	–	–	–	–	197 nM	186 nM	210 nM	194 nM	176 nM
CGUCUAUAGCAGGAUACCAGUACCCAUUAUGUACGUUUAUAGUAGAGUGAUGUUCUAAAGUACCCUUGGCAGCUUCCUGUGACCC [#24 K4 Theophylline B Exclusion]	–	–	–	–	–	179 nM	189 nM	189 nM	206 nM	163 nM
GGAUAGGACAAAGGAUAUGGGCUAGGCAAGAAUAACUUGUCUAGCAAAUCCAUGAGGAGUGAUGUUCCAGAAGGUUGUCCUAUCG [FmnBX 1 A11+U75]	–	–	–	–	–	624 nM	116 nM	122 nM	127 nM	107 nM
UUGCCUCUGGCUGAUACCAGUGAUGCAGGGUAUGAAACAGGGAGUGAUGUUCCCUGCAGCCACCCUUGGCAGCAGUUUAAGUUUG [Exclusion Theophylline B GF 21]	–	–	–	–	–	182 nM	152 nM	181 nM	158 nM	160 nM

Sequence	apparent KD of MS2 coat protein ([1]; input ligand: arginine 13.2 mM)	apparent KD of MS2 coat protein ([1]; input ligand: none)	apparent KD of MS2 coat protein [1, 3]	apparent KD of MS2 coat protein [1, 4]	apparent KD of MS2 coat protein [1, 5]	apparent KD of K4 kissing-loop reporter ([2]; input ligand: FMN 200 uM)	apparent KD of K4 kissing-loop reporter ([2]; input ligand: arginine 13.2 mM)	apparent KD of K4 kissing-loop reporter ([2]; input ligand: none)	apparent KD of K4 kissing-loop reporter [2, 3]	apparent KD of K4 kissing-loop reporter [2, 5]
UGUGUUUACCUGACUCAGUGAUGUUGAGAAGGAGCGUGCGAAAGCACAGGUAGGUCGCUCAAUCCUUAAUCAGGUGAGCACUAAA [#SwitchBubble 13 #K4Early]	–	–	–	–	–	394 nM	507 nM	502 nM	447 nM	359 nM
AACACCCGCUAUGAUACCAGUGAAGUGAUGUUUUACUCCGGGCGUAAGACAAAGGUCAGCCACCCUUGGCAGCAUAUCCGCGUAU [theeternabot_exclusion_KL_Theo_B_35]	–	–	–	–	–	721 nM	418 nM	594 nM	490 nM	440 nM
GCGUAUGAUGCUCAAAGAGUAUCUCCCGAUACCAGUAUGGAAACAUACCCUUGGCAGCGGGUAACUGCCCAGUGAUGUUGGACGC [Theophylline A K4 9]	–	–	–	–	–	430 nM	253 nM	351 nM	394 nM	326 nM
AUUUAGACGAGUGAUGUUCGUGUUAAUACAGAGGAUAUGCGUGAUUGCAGAAGGCUGUAUUUAUAUAUGUUAUGUGGUUUUAAAA [whbob_Ex_FMNA__2th187]	–	–	–	–	–	76.6 nM	115 nM	87.2 nM	99.7 nM	66.3 nM
UCCUAGGCUCGAAAGAGCCUAGGAUUUACUCAGGAUAUCCGGAAACGGAGAAGGGAGUAACUAGUGAUGUUAGGGAUUCCCUAUU	–	–	–	–	–	552 nM	113 nM	123 nM	131 nM	125 nM
CCUGUGUGUGAAGGAUAUAUUUCGCAUUAAAACUAGUGAUGUUGGUAAAUGGCACAAUCCGUAGCAAUAGAAGGUCACUCCGGAA [theeternabot_sameState_KL_FMN_B_22]	–	–	–	–	–	499 nM	445 nM	793 nM	498 nM	524 nM
GCCUACGAUGCAGGAUAUAGCUCGCGAGUGAUGUUCGCAGCUGUAUGGUAGUAAACUUCCACGUGUCUAGAAGGGCAUCGUAGGC	–	–	–	–	–	111 nM	79.7 nM	91.6 nM	80 nM	90.7 nM
UGAUACCAGACGGCCGCCACUCCUGCAGUCAAAGACUGCAAGGAAAUAUUCGUCCAGUGAUGUUGGAGGACCGGGUCUGGUAUCU [TrypBX 9 #SwitchBubble #Palindromic #StaticStem]	–	–	–	–	–	921 nM	687 nM	820 nM	670 nM	1060 nM
AAGCAGUCACUCGAAGCCAUCGAAGAUGGACGAGGACCGGUACGGCCGCCACUCGGAGUGAUGUUCCGAAGACUGCAAAAUAAAA	–	–	–	–	–	312 nM	274 nM	296 nM	330 nM	469 nM
UGUCAUUGGUCGGCCGCCACUAAAAUAAAAGAGUGAUGUUCUUAAAAGACGGACAAAGUCUGUCAUAGGACCGGGACCGAUGACU [TrypBS 23 #SwitchBubble #StaticStem]	–	–	–	–	–	547 nM	425 nM	529 nM	436 nM	202 nM
UGGACCUGACUCGAUAAGAGUCAAAGGGAUACCAGCCACGAAAGUGGCCCUUGGCAGCUCUGCCAGUGAUGUUGGUCAAGGUCCU [#SwitchBubble 6 #StaticStem]	–	–	–	–	–	925 nM	701 nM	1310 nM	590 nM	854 nM
AUGCCUCUGGCUGAUACCAGUGAUGCAGGGUAUGAGACAGGGAGUGAUGUUCCCUGCAGCCACCCUUGGCAGCAGUUUAAGUUUG [Exclusion Theophylline B GF 20]	–	–	–	–	–	184 nM	180 nM	185 nM	197 nM	168 nM
AGAAACUUGUAUGUCGAGUGUGCGCGCGAUACCAGCCAAAUGGAUGGCCCUUGGCAGCGCUGCGAGUGAUGUUCGCCCGCUUGAC [#18 K4 Theophylline A Exclusion]	–	–	–	–	–	210 nM	244 nM	203 nM	192 nM	174 nM
GGGAGUAGUGCGGCCGCCACUGUGAAAGUAGAAGAAUAUAGUGAUGUUAUAUAGGAUUAAAAGAAUAGGACCGGGCAUUAGAUUU [SSTRyptB.W]	–	–	–	–	–	176 nM	207 nM	219 nM	186 nM	209 nM
UUUUAUUAAUUCUUCUAGUGAUGUUAGAUACGAGGACCGGUACGGCCGCCACUCGCUUAUUGGUUUAUAUAUUUUAUAUUCUUUA [JR_SSTryptoA_Sub015]	–	–	–	–	–	293 nM	319 nM	330 nM	400 nM	264 nM
GCCGUAGAUCGAAGGAGCGUGCAAGAAUCGUAGUGAUGUUACGGAGAGUGUCACGCCGUCGCACAGGUAGGUCGCGAUCUACGGC	–	–	–	–	–	71 nM	76.4 nM	84.1 nM	69.2 nM	66.8 nM
CGGAGUGAUGUUCCGUUAAUUCCUUAGUUACGAGGACCGGUACGGCCGCCACUCGAUUUUAGUUUUAUUUAUUGUUUGGAAAUUU [JR_SSTryptoA_Sub008]	–	–	–	–	–	253 nM	268 nM	290 nM	327 nM	113 nM
UGAUACCAGACUGAUACCAGCUAGUGAUGUUAGCUGAUCUAAGGACCGUCAAAGACGGCUAGCCCUUGGCAGCAGUCUGGUAUCU [TheoBX 13 #SwitchBubble #StaticStem]	–	–	–	–	–	120 nM	105 nM	121 nM	130 nM	121 nM
CGCAGUGAUGUUGCGAGUAGCUACAGGGAAGGAGCGUGCUAGAGCACAGGUAGGUCGCCCAGUGGCAGUGAUGUUGCCAACGGGU [Exclusion ARginine A GF 18]	–	–	–	–	–	132 nM	110 nM	110 nM	104 nM	109 nM
